Measurements as given in US20260234241A1 (SHANGHAI QILU PHARMACEUTICAL RESEARCH AND DEVELOPMENT CENTRE, published 2026).
Where two headings read alike, the source gives them in different places.

Assays:
human BCMA (on cells) [1] = target: T1, human BCMA (on cells) (human, UniProt Q02223 1-184); assay: FACS, human BCMA-CHOK1 cells, anti-human IgG Fc PE secondary, MFI
T1 construct: Full length, on transfected CHOK1 cells; also used as the target of the BCMA/CD3 bispecific Teclistamab on NCI-H929 and RPMI8226 cells; also called Human BCMA CHOK1
T1 sequence: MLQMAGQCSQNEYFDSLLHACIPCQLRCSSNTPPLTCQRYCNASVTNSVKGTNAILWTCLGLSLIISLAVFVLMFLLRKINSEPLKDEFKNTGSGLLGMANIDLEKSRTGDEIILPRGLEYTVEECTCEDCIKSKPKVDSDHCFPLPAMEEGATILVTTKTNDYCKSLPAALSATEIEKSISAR

[2] = target: T2, cynomolgus monkey BCMA (on cells) (cynomolgus monkey, UniProt Q02223 1-184 (human entry)); assay: FACS, cynomolgus monkey BCMA-CHOK1 cells, anti-human IgG Fc PE secondary, MFI
T2 construct: also called cyno-BCMA; cyno BCMA CHOK1
T2 sequence (Q02223 other isoform, or with tags, fused parts or gaps): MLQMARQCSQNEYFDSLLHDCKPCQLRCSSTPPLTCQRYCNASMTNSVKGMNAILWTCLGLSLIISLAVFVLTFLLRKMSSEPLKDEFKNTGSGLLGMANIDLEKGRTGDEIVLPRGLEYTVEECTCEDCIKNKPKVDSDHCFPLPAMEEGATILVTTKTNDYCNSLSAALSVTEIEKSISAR

human BCMA (on cells) [3] = target: T1, human BCMA (on cells); assay: FACS on human BCMA-CHOK1 cells
[4] = target: T2, cynomolgus monkey BCMA (on cells); assay: FACS on cynomolgus BCMA-CHOK1 cells
human BCMA (on cells) [5] = target: T1, human BCMA (on cells); assay: FACS, human BCMA-CHOK1 cells, anti-human IgG Fc PE secondary, MFI; remark: listed apart in the source

B1: 19CH-16H2L2 (antibody, IgG1, V domains shown)
VH: QVQLVQSGAEVKKPGASVKVSCKASGFTFRSSYISWVRQAPGQGLEWIAWIYAGSGNTDYNQKFTGRVTMTVDTSTSTVYMELSSLRSEDTAVYYCARHYDPPHYFDYWGQGTLVTVSS
VL: DIQLTQSPSSLSASVGDRVTITCSASSGVSHMHWYQQKPGKAPKRWIYDTSKLTSGVPSRFSGSGSGTDFTLTISSLQPEDFATYYCQQWSRNPWTFGQGTKVEIK
notes: also called humanized anti-BCMA antibody (19CH-16H2L2)
EC50 (read off the curve) (human BCMA (on cells) [1]): ~1 nM | EC50 (read off the curve) [2]: ~3 nM

B2: 19CH-16H2L2-QT (antibody, V domains shown)
VH: QVQLVQSGAEVKKPGASVKVSCKASGFTFRSSYISWVRQAPGQGLEWIAWIYAGSGQTDYNQKFTGRVTMTVDTSTSTVYMELSSLRSEDTAVYYCARHYDPPHYFDYWGQGTLVTVSS
VL: DIQLTQSPSSLSASVGDRVTITCSASSGVSHMHWYQQKPGKAPKRWIYDTSKLTSGVPSRFSGSGSGTDFTLTISSLQPEDFATYYCQQWSRNPWTFGQGTKVEIK
EC50 (human BCMA (on cells) [3]): 7.76 nM | EC50 [4]: 9.05 nM

B3: 19CH-16 (antibody, IgG1, V domains shown)
VH: QGQMQQSGAELVKPGTSVKLSCKTSGFTFRSSYISWLQQKPGQSLEWIAWIYAGSGNTDYNQKFTGKAQLTVDTSSSTAYMQFSSLTTEDSAIYYCARHYDPPHYFDYWGQGTTLTVSS
VL: QIVLTQSPAIMSASPGEKVTMTCSASSGVSHMHWYQQKSGTSPKRWIYDTSKLTSGVPTRFSGTGSGTSYSLSISSMEAEDAATYYCQQWSRNPWTFGGGTKLEIK
notes: also called anti-BCMA chimeric antibody (19CH-16) derived from mouse hybridoma
EC50 (read off the curve) (human BCMA (on cells) [5]): ~2 nM
